This is an account of results in US20060083715A1 (published 2006).

This assay deals with T1, Interferon type I receptors on HeLa cells (UniProt P17181 28-557; P48551 27-515, limits assumed).
T1 sequence (looked up) 1: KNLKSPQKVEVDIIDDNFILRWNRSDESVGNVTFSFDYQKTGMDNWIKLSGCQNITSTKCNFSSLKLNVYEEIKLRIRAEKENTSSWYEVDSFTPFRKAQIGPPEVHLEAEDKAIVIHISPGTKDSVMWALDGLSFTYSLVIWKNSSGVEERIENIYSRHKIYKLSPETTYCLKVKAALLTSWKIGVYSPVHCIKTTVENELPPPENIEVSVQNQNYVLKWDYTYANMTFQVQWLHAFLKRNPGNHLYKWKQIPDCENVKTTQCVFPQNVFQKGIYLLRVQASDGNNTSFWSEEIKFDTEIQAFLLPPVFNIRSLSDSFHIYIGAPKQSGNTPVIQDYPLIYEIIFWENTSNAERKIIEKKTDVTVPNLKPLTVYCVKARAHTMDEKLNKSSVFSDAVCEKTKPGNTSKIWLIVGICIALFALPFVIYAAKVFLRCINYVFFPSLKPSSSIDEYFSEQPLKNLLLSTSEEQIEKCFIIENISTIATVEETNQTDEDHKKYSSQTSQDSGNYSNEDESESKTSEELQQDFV
T1 sequence (looked up) 2: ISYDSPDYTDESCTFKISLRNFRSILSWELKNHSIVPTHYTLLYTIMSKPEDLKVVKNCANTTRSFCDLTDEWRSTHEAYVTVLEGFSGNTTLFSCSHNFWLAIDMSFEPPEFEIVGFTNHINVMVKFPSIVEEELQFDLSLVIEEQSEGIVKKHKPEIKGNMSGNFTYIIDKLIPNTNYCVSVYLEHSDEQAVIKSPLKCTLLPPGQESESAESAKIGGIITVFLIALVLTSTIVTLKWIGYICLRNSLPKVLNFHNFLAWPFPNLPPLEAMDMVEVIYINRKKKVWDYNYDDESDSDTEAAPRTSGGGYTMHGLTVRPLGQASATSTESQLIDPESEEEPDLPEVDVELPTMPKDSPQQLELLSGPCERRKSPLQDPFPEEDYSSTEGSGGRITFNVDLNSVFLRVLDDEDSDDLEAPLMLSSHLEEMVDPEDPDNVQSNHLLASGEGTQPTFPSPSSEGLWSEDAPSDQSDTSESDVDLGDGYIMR
Description: cell-based or functional assay.

B1: [F111N+R113T] human IFNB variant (ligand)
chain: MSYNLLGFLQRSSNFQCQKLLWQLNGRLEYCLKDRMNFDIPEEIKQLQQFQKEDAALTIYEMLQNIFAIFRQDSSSTGWNETIVENLLANVYHQINHLKTVLEEKLEKEDNTTGKLMSSLHLKRYYGRILHYLKAKEYSHCAWTIVRVEILRNFYFINRLTGYLRN
modifications: introduced in vivo N-glycosylation site at position 111
For B1, the “specific activity relative to wild-type human IFNB (primary assay)” value was ~2 fold of wild-type human IFNB.
